Results as given in patent publication US11732048B2, “Anti-axl antagonistic antibodies” (BERGEN TEKNOLOGIOVERFØRING AS, priority 2016, dated 2023).
Where two headings read alike, the source gives them in different places.

How the values were obtained:
[1] = target: T1, Tyro3 (rhTyro3/Dtk-Fc chimera) (Homo sapiens, UniProt Q06418); experiment: Biacore binding analysis on immobilised human Tyro3; conditions: 10 μg/mL in HBS-EP, 25° C.
T1 construct: Soluble recombinant antigens corresponding to the extracellular domains of members of the human TAM receptor family; Fc; purchased R&D Systems 859-DK
T1 sequence (Q06418 41-429 limits assumed): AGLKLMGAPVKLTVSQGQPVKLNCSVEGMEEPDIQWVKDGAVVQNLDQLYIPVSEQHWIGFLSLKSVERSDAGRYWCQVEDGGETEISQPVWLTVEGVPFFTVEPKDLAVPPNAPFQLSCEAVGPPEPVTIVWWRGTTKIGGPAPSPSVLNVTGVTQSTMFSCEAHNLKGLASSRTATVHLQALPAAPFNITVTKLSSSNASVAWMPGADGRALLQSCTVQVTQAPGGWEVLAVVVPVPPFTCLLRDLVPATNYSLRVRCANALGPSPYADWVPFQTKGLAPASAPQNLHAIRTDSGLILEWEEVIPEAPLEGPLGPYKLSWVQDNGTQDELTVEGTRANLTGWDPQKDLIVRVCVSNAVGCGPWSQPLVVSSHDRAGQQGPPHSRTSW
Method: (§1) All binding experiments were performed using Biacore 3000 instrument (GE Healthcare) at 25° C. Soluble recombinant antigens corresponding to the extracellular domains of members of the human TAM receptor family, Axl (rhAxl-Fc chimera; R&D Systems, Cat. no. 154-AL), Mer (rhMer-Fc chimera; R&D Systems, Cat. no. 891-MR) and Tyro3 (rhTyro3/Dtk-Fc chimera; R&D Systems, Cat. no. 859-DK) were immobilized on the surface of CM5 sensor chip using amine coupling at the surface density of 393.0, 303.6 and 364.0 resonance units (RU), respectively. The Biacore run was performed in an automatic mode using Binding analysis wizard. Samples containing MAb 10G5 at concentration 10 μg/mL in HBS-EP buffer (GE Healthcare) were injected over the surfaces with immobilized antigens at flow rate of 30 μL/min for 3 min (association) followed by 5 min dissociation.
(§2) The binding experiments were performed using Biacore 3000 instrument (GE Healthcare) at 25° C. The soluble recombinant antigens corresponding to human Axl (rhAxl-Fc chimera; R&D Systems, Cat. no. 154-AL), mouse Axl (rmAxl-Fc chimera; R&D Systems, R&D Systems; Cat. no. 854-AX) and human Tyro3 (rhTyro3/Dtk-Fc chimera; R&D Systems, Cat. no. 859-DK) were immobilized on the surface of CM5 sensor chip using amine coupling at the surface density of 1,308.0, 2,115.9 and 1,429.0 RU, respectively. The Biacore runs were performed in an automatic mode using Binding analysis wizard.
(§3) The sample containing MAb 10G5 or recombinant mouse (rm) Axl-ligand Gas6 (R&D Systems, Cat. no. 986-GS/CF) at concentration 10 μg/mL in HBS-EP buffer (GE Healthcare) was injected over the surfaces with immobilized antigens at flow rate of 30 μL/min for 3 min (association) followed by 5 min dissociation.

[2] = target: T2, human Axl (rhAxl-Fc chimera) (Homo sapiens, UniProt P30530); experiment: Biacore binding analysis on immobilised human Axl; conditions: 10 μg/mL in HBS-EP, 25° C.
T2 construct: Soluble recombinant antigens corresponding to the extracellular domains of members of the human TAM receptor family; Fc; purchased R&D Systems 154-AL
Method: as §1, §2, §3
The sequence of Axl receptor from cynomolgus monkey (Macaca fascicularis; SEQ ID NO: 27) was retrieved from WO2009062690A1. Based on the sequence, recombinant extracellular domain of cyno-Axl was generated by transient expression in CHO cells as a fusion protein with human Fc. The recombinant cyno-Axl-Fc was purified to homogeneity using Protein A-Sepharose (GE Healthcare). The binding experiments were performed using Biacore 3000 instrument (GE Healthcare) at 25° C. The soluble recombinant antigens corresponding to human Axl (rhAxl-Fc chimera; R&D Systems, Cat. no. 154-AL) and cyno-Axl were immobilized on the surface of CM5 sensor chip using amine coupling at the surface density of 775 and 880 RU, respectively. The Biacore runs were performed in an automatic mode using Binding analysis wizard.
The sample containing MAb 10G5 or human Axl-specific MAb 5F11 (control) at concentration 10 μg/mL in HBS-EP buffer (GE Healthcare) was injected over the surfaces with immobilized antigens at flow rate of 30 μL/min for 3 min (association) followed by 5 min dissociation. […]

[3] = target: T3, mouse Axl (rmAxl-Fc chimera; Mm-Axl-Fc) (Mus musculus, UniProt Q00993); experiment: Biacore binding analysis on immobilised mouse Axl
T3 construct: The soluble recombinant antigens corresponding to human Axl (rhAxl-Fc chimera; R&D Systems, Cat. no; 154-AL), mouse Axl (rmAxl-Fc chimera; Fc; purchased R&D Systems 854-AX
Method: as §2, §3
Sensor chip with immobilised Axl: Hs-Axl-Fc (638.2 RU), Mm-Axl-Fc (334.5 RU), Rhe-Axl-Fc (350.2 RU)
All tests were performed in parallel on Hs-Axl-Fc, Mm-Axl-Fc and Rhe-Axl-Fc surfaces.

[4] = target: T2, human Axl (rhAxl-Fc chimera); experiment: Biacore kinetic analysis (surface plasmon resonance) on immobilised rhAxl-Fc; format: binding
Method: Kinetic analysis of murine MAb 10G5 interacting with rhAxl immobilized on the surface of the Biacore sensor chip. Overlay plots of sensograms for different antibody concentrations (0.3-166.7 nM for murine 10G5) are shown. The precise kinetic analysis was performed using BIA evaluation software and curve fitting according to 1:1 Langmuir binding model. […]
Affinity determination of anti-Axl antibody 10G5 was performed at 25° C. by surface plasmon resonance measurements using Biacore 3000 instrument (GE Healthcare). As a solid antigen-coated surface, a sensor chip CM5 with immobilized rhAxl-Fc chimera (R&D Systems, Cat. no. 154-AL) at density 190 RU was used.
For the kinetics measurements, different concentrations of anti-Axl antibodies (from 0.3 to 666.7 nM) in HBS-EP buffer (Biacore, Cat. no. BR-1001-88) were injected at flow rate of 30 μL/min with 3 min injection time followed by 5 min dissociation (buffer alone). After each cycle, the surface was regenerated by 30 sec injection of a regeneration solution (10 mM HCl, 1 M NaCl) at flow rate 50 μL/min.
The kinetic association (on-rate, kon) and dissociation (off-rate, koff) rates were calculated using BIAevaluation software and 1:1 Langmuir binding model. The equilibrium dissociation constant (KD) was calculated as the koff/kon ratio. The half-life (t1/2) of the formed antibody-antigen complexes was calculated as the ln 2/koff ratio. […]

[5] = rhAxl immobilized on Biacore sensor chip, 25° C., 1:1 Langmuir binding model

T3 sequence (Q00993 19-445 limits assumed, change not shown): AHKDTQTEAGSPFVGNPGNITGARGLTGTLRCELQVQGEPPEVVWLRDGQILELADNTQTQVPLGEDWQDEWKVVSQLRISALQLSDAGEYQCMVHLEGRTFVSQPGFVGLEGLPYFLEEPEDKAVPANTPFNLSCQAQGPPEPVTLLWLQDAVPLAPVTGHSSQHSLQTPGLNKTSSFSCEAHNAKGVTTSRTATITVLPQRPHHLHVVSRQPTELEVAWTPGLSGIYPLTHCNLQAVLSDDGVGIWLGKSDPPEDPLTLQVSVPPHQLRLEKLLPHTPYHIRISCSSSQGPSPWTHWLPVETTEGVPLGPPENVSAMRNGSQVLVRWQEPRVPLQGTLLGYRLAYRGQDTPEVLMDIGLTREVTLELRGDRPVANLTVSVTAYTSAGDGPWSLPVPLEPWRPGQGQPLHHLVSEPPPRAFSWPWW

B1: mouse Gas6: recombinant mouse Axl-ligand Gas6 (R&D Systems) (protein)
chain: QCTPNPCDKKGTHICQDLMGNFFCVCTDGWGGRLCDKDVNECVQKNGGCSQVCHNKPGSFQCACHSGFSLASDGQTCQDIDECTDSDTCGDARCKNLPGSYSCLCDEGYTYSSKEKTCQDVDECQQDRCEQTCVNSPGSYTCHCDGRGGLKLSPDMDTCEDILPCVPFSMAKSVKSLYLGRMFSGTPVIRLRFKRLQPTRLLAEFDFRTFDPEGVLFFAGGRSDSTWIVLGLRAGRLELQLRYNGVGRITSSGPTINHGMWQTISVEELERNLVIKVNKDAVMKIAVAGELFQLERGLYHLNLTVGGIPFKESELVQPINPRLDGCMRSWNWLNGEDSAIQETVKANTKMQCFSVTERGSFFPGNGFATYRLNYTRTSLDVGTETTWEVKVVARIRPATDTGVLLALVGDDDVVPISVALVDYHSTKKLKKQLVVLAVEDVALALMEIKVCDSQEHTVTVSLREGEATLEVDGTKGQSEVSTAQLQERLDTLKTHLQGSVHTYVGGLPEVSVISAPVTAFYRGCMTLEVNGKILDLDTASYKHSDITSHSCPPVEHATP
B1 was tested, and the “Binding to recombinant human Tyro3” value [1] was “somewhat weaker binding”, the “Binding to recombinant human Tyro3” value ([1]; listed as murine Gas 6) was “more weakly” and the “Binding to human Axl” value [2] was “strong binding”. For the same molecule, the “Binding to human Axl” value ([2]; listed as murine Gas 6) was “binds strongly”, the “Binding to mouse Axl” value [3] was “strong binding” and the “Binding to mouse Axl” value ([3]; listed as murine Gas 6) was “binds strongly”.

B2: H1L1: humanised 10G5 variant; presumably VH GH1 (SEQ ID NO: 1) with VL GL1 (SEQ ID NO: 3) (antibody, V domains shown)
VH: EVQLVQSGAGLVQPGGSVRLSCAASGYSFTDFYINWVRQAPGKGLEWIARIFPGGDNTYYNEKFKGRFTLSADTSSSTAYLQLNSLRAEDTAVYYCARRGLYYAMDYWGQGTLVTVSS
VL: DIQMTQSPSSLSASVGDRVTITCRSSQSLVHSNGIPYLHWYQQKPGKAPKLLIYRVSNRFSGVPSRFSGSGSGTDFTLTISSLQPEDFATYYCSQGTHVPPTFGQGTKVEIK
modifications: hu10G5 VH(GH1); hu10G5 VL(GL1)
For B2, the “KD lower than that of the chimeric antibody” value ([4]; comparison referring to Table 3) was “at least 30%”, the “Off-rate (koff)” value [4, 5] was 0.000161 s⁻¹ and the “On-rate (kon)” value [4, 5] was 1.54e+06 M⁻¹ s⁻¹.
